Blank lines part the entries; values can stand above or below the binder they belong to.
What was measured:
4H2588-bN = target: T1, 4H2588-bN; test: two-hybrid library CCNG1;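 further: natural log of median RNA to DNA barcode read ratio; higher means stronger binding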
T1 chain: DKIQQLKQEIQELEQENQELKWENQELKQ

4H2717-bN = target: T2, 4H2717-bN; test: two-hybrid library CCNG1;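 further: natural log of median RNA to DNA barcode read ratio; higher means stronger binding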
T2 chain: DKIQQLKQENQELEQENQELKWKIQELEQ

4H741-bN = target: T3, 4H741-bN; test: two-hybrid library CCNG1;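 further: natural log of median RNA to DNA barcode read ratio; higher means stronger binding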
T3 chain: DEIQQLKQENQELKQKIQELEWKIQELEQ

4H40-bN = target: T4, 4H40-bN; test: two-hybrid library CCNG1;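 further: natural log of median RNA to DNA barcode read ratio; higher means stronger binding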
T4 chain: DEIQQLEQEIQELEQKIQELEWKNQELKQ

4H3277-bN = target: T5, 4H3277-bN; test: two-hybrid library CCNG1
T5 chain: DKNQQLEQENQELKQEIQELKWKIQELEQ

4H3057-bN = target: T6, 4H3057-bN; test: two-hybrid library CCNG1
T6 chain: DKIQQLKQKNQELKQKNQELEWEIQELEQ

4H477-bN = target: T7, 4H477-bN; test: two-hybrid library CCNG1
T7 chain: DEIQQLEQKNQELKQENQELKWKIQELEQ

4H2223-bN = target: T8, 4H2223-bN; test: two-hybrid library CCNG1
T8 chain: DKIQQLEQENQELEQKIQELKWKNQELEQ

4H3381-bH = target: T9, 4H3381-bH; test: two-hybrid library CCNG1
T9 chain: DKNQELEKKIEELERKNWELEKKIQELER

4H2692-bN = target: T10, 4H2692-bN; test: two-hybrid library CCNG1
T10 chain: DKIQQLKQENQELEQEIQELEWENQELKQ

4H2839-bN = target: T11, 4H2839-bN; test: two-hybrid library CCNG1
T11 chain: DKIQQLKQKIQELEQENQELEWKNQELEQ

4H2438-bN = target: T12, 4H2438-bN; test: two-hybrid library CCNG1
T12 chain: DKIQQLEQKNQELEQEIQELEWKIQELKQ

4H2915-bN = target: T13, 4H2915-bN; test: two-hybrid library CCNG1
T13 chain: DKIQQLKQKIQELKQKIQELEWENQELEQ

4H319-bN = target: T14, 4H319-bN; test: two-hybrid library CCNG1
T14 chain: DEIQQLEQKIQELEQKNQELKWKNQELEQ

4H492-bN = target: T15, 4H492-bN; test: two-hybrid library CCNG1
T15 chain: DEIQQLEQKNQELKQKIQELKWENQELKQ

4H2503-bN = target: T16, 4H2503-bN; test: two-hybrid library CCNG1
T16 chain: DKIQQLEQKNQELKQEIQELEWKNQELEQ

4H2473-bN = target: T17, 4H2473-bN; test: two-hybrid library CCNG1
T17 chain: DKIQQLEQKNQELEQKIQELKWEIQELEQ

4H1348-AA = target: T18, 4H1348-AA; test: two-hybrid library CCmax; conditions: mean of both orientations
T18 chain: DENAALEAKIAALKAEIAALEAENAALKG

4H3709-AA = target: T19, 4H3709-AA; test: two-hybrid library CCmax; conditions: mean of both orientations
T19 chain: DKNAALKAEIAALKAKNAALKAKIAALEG

4H497-AA = target: T20, 4H497-AA; test: two-hybrid library CCmax; conditions: mean of both orientations
T20 chain: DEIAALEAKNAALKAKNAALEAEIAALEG

4H675-AA = target: T21, 4H675-AA; test: two-hybrid library CCmax; conditions: mean of both orientations
T21 chain: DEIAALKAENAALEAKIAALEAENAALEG

4H3628-AA = target: T22, 4H3628-AA; test: two-hybrid library CCmax; conditions: mean of both orientations
T22 chain: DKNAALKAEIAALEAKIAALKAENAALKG

4H2742-AA = target: T23, 4H2742-AA; test: two-hybrid library CCmax; conditions: mean of both orientations
T23 chain: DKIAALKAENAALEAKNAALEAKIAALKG

4H3102-AA = target: T24, 4H3102-AA; test: two-hybrid library CCmax; conditions: mean of both orientations
T24 chain: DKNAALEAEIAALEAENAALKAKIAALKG

4H1854-AA = target: T25, 4H1854-AA; test: two-hybrid library CCmax; conditions: mean of both orientations
T25 chain: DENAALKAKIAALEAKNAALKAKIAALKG

4H971-AA = target: T26, 4H971-AA; test: two-hybrid library CCmax; conditions: mean of both orientations
T26 chain: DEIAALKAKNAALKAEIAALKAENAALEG

4H3939-AA = target: T27, 4H3939-AA; test: two-hybrid library CCmax; conditions: mean of both orientations
T27 chain: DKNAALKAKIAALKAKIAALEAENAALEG

4H1809-AA = target: T28, 4H1809-AA; test: two-hybrid library CCmax; conditions: mean of both orientations
T28 chain: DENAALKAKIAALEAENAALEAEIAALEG

4H3446-AA = target: T29, 4H3446-AA; test: two-hybrid library CCmax
T29 chain: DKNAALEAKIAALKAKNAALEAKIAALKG

4H2991-AA = target: T30, 4H2991-AA; test: two-hybrid library CCmax; conditions: mean of both orientations
T30 chain: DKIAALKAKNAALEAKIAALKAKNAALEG

4H2283-AA = target: T31, 4H2283-AA; test: two-hybrid library CCmax; conditions: mean of both orientations
T31 chain: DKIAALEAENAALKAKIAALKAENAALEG

4H2248-AA = target: T32, 4H2248-AA; test: two-hybrid library CCmax; conditions: mean of both orientations
T32 chain: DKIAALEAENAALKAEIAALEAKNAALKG

4H3666-AA = target: T33, 4H3666-AA; test: two-hybrid library CCmax; conditions: mean of both orientations
T33 chain: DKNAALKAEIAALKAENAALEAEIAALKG

4H3920-AA = target: T34, 4H3920-AA; test: two-hybrid library CCmax; conditions: mean of both orientations
T34 chain: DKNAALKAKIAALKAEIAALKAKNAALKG

4H3029-AA = target: T35, 4H3029-AA; test: two-hybrid library CCmax; conditions: mean of both orientations
T35 chain: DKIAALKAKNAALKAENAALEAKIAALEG

4H2948-AA = target: T36, 4H2948-AA; test: two-hybrid library CCmax; conditions: mean of both orientations
T36 chain: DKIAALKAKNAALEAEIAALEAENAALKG

4H428-AA = target: T37, 4H428-AA; test: two-hybrid library CCmax; conditions: mean of both orientations
T37 chain: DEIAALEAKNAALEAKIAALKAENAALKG

4H3066-AA = target: T38, 4H3066-AA; test: two-hybrid library CCmax; conditions: mean of both orientations
T38 chain: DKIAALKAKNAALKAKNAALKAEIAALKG

4H189-AA = target: T39, 4H189-AA; test: two-hybrid library CCmax; conditions: mean of both orientations
T39 chain: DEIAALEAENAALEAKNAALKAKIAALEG

4H3121-AA = target: T40, 4H3121-AA; test: two-hybrid library CCmax; conditions: mean of both orientations
T40 chain: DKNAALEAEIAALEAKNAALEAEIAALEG

4H146-AA = target: T41, 4H146-AA; test: two-hybrid library CCmax; conditions: mean of both orientations
T41 chain: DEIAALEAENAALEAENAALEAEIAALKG

4H1391-AA = target: T42, 4H1391-AA; test: two-hybrid library CCmax
T42 chain: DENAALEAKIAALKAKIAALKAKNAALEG

4H3417-AA = target: T43, 4H3417-AA; test: two-hybrid library CCmax; conditions: mean of both orientations
T43 chain: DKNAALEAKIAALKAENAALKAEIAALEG

4H478-AA = target: T44, 4H478-AA; test: two-hybrid library CCmax; conditions: mean of both orientations
T44 chain: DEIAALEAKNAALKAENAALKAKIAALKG

4H391-AA = target: T45, 4H391-AA; test: two-hybrid library CCmax; conditions: mean of both orientations
T45 chain: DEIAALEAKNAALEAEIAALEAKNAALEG

4H656-AA = target: T46, 4H656-AA; test: two-hybrid library CCmax; conditions: mean of both orientations
T46 chain: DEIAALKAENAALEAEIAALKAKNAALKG

4H2713-AA = target: T47, 4H2713-AA; test: two-hybrid library CCmax; conditions: mean of both orientations
T47 chain: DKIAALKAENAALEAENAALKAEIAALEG

4H3591-AA = target: T48, 4H3591-AA; test: two-hybrid library CCmax; conditions: mean of both orientations
T48 chain: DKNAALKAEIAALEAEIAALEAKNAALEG

4H1146-AA = target: T49, 4H1146-AA; test: two-hybrid library CCmax
T49 chain: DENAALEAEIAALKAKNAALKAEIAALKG

- interaction score (4H2588-bN): 0.654
- interaction score (4H2717-bN): -2.14
- interaction score (4H741-bN): -0.691
- interaction score (4H40-bN): -0.775
- interaction score (4H3277-bN): -0.393
- interaction score (4H3057-bN): -0.362
- interaction score (4H477-bN): -1.55
- interaction score (4H2223-bN): 0.483
- interaction score (4H3381-bH): 0.0621
- interaction score (4H2692-bN): -0.818
- interaction score (4H2839-bN): -0.721
- interaction score (4H2438-bN): -0.0421
- interaction score (4H2915-bN): -1.33
- interaction score (4H319-bN): -0.943
- interaction score (4H492-bN): 0.539
- interaction score (4H2503-bN): 1.04
- interaction score (4H2473-bN): -0.941
Binder: DKIQQLEQENQELEQKIQELKWKNQELEQ [4H2223-bN]

- interaction score (4H1348-AA): -1.15
- interaction score (4H3709-AA): -0.436
- interaction score (4H497-AA): -1.98
- interaction score (4H675-AA): 0.0108
- interaction score (4H3628-AA): -1.65
- interaction score (4H2742-AA): -1.39
- interaction score (4H3102-AA): 0.627
- interaction score (4H1854-AA): -0.715
- interaction score (4H971-AA): -0.562
- interaction score (4H3939-AA): -1.69
- interaction score (4H1809-AA): 2.05
- interaction score (4H3446-AA): 0.452
- interaction score (4H2991-AA): -0.0174
- interaction score (4H2283-AA): -0.542
- interaction score (4H2248-AA): -0.598
- interaction score (4H3666-AA): 2.01
- interaction score (4H3920-AA): -1.58
- interaction score (4H3029-AA): -1.14
- interaction score (4H2948-AA): -0.764
- interaction score (4H428-AA): -0.861
- interaction score (4H3066-AA): -1.53
- interaction score (4H189-AA): -1.57
- interaction score (4H3121-AA): -0.198
- interaction score (4H146-AA): 0.0699
- interaction score (4H1391-AA): -1.56
- interaction score (4H3417-AA): 0.618
- interaction score (4H478-AA): -1.22
- interaction score (4H391-AA): -1.21
- interaction score (4H656-AA): 1.71
- interaction score (4H2713-AA): -0.725
- interaction score (4H3591-AA): -0.991
- interaction score (4H1146-AA): -0.0838
Binder: DENAALEAEIAALKAKNAALKAEIAALKG [4H1146-AA]

Reference: PMC10397247
